Laboratory results from patent US20260258092A1.
“And” between values parts separate entries of the source, which are not always exact repeats. Equal values may be shown once.

Experiments:
[1] = molecular target: dAb, a domain antibody comprising the variable light chain; assay: frontal analysis on a membrane disc, run 1, average of Test 1 and Test 2
Trastuzumab [2] = assay: frontal analysis on a membrane disc, blank run between runs, average
[3] = molecular target: dAb, a domain antibody comprising the variable light chain; assay: frontal analysis on a membrane disc, re-run after CIP with 0.1 M NaOH, average; conditions: test 1, without preceding CIP wash
Trastuzumab [4] = assay: frontal analysis on a membrane disc, load at 10 mL/min, average of runs 1-4
Trastuzumab [5] = assay: frontal analysis on a membrane disc, load at 10 mL/min, run 2 (no blank run before)
Trastuzumab [6] = assay: frontal analysis on a membrane disc, load at 10 mL/min, run 1
Trastuzumab [7] = assay: frontal analysis on a membrane disc, blank run between runs, run 1
[8] = molecular target: dAb, a domain antibody comprising the variable light chain; assay: frontal analysis on a membrane disc, run 2, average of Test 1 and Test 2
Trastuzumab [9] = assay: frontal analysis on a membrane disc, blank run between runs, run 2
[10] = molecular target: dAb, a domain antibody comprising the variable light chain; assay: frontal analysis on a membrane disc, run 1
Trastuzumab [11] = assay: frontal analysis on a membrane disc, load at 10 mL/min, run 3
[12] = molecular target: dAb, a domain antibody comprising the variable light chain; assay: frontal analysis on a membrane disc, run 2
Trastuzumab [13] = assay: frontal analysis on a membrane disc, load at 10 mL/min, run 4 (no blank run before)

Question: What does the source list for “kappa light chain-binding ligand (multimer of alkali-stabilized Finegoldia magna Protein L domains) covalently coupled to a convection-based fibrous support (prototype separation matrix) (designed binder)”?
Answer: Average of Qb10% [1]: 12.9 mg/mL; Qb10% (average of runs) (Trastuzumab [2]): 15.4 mg/mL and 21.4 mg/mL; Qb10% (average of runs) [3]: 10.2 mg/mL; Qb10% (average of runs) (Trastuzumab [4]): 19.6 mg/mL and 14.1 mg/mL; Qb10% (dynamic binding capacity at 10% breakthrough) (Trastuzumab [5]): 12.3 mg/mL and 17.8 mg/mL; Qb10% (dynamic binding capacity at 10% breakthrough) (Trastuzumab [6]): 17.3 mg/mL and 22 mg/mL; Qb10% (dynamic binding capacity at 10% breakthrough) (Trastuzumab [7]): 15.4 mg/mL and 21.4 mg/mL; Average of Qb10% [8]: 9.98 mg/mL; Qb10% (dynamic binding capacity at 10% breakthrough) (Trastuzumab [9]): 15.5 mg/mL and 21.4 mg/mL; Qb10% (dynamic binding capacity at 10% breakthrough) [10]: 12.8 mg/mL and 13 mg/mL; Qb10% (dynamic binding capacity at 10% breakthrough) (Trastuzumab [11]): 15.9 mg/mL and 21.8 mg/mL; Qb10% (dynamic binding capacity at 10% breakthrough) [12]: 9.41 mg/mL and 10.5 mg/mL; Qb10% (dynamic binding capacity at 10% breakthrough) (Trastuzumab [13]): 10.8 mg/mL and 16.8 mg/mL
